# Results taken from the RNAGym collection of RNA variant scans (doi:10.1073/pnas.2313332121).
# B1: TPR t1 (parent)
# chain: GACCAAUCUGCCCUCAGAGCUCGAGAACAUCUUCGGAUGCAGAGGAGGCAGGCUUCGGUGGCGCGAUAGCGCCAACGUCCUCAACCUCCAAUGCAUCCCACCACAUGAUGAUGCCUGAAGAGCCUUGGUUUUUUG
# Variants of: B1
# Test: polymerase ribozyme fitness, log enrichment relative to wild type (log ratio); higher = more active; in vitro selection for triplet polymerase activity
# Method in brief: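 In triplicate, a single round of in vitro selection was run on each mutant library, PCR-built and transcribed, covering one subunit of a heterodimeric triplet polymerase ribozyme. Frozen incubation at −7 °C followed annealing with a biotinylated primer, partner subunit and triplets, and extended constructs were then gel-excised, streptavidin-captured and taken through RT-PCR. Fitness is the logarithm of genotype enrichment over wild-type enrichment, from inverse-variance-weighted replicate averages of Illumina-sequenced inputs and outputs. […] only genotypes with ≥10 input reads and ≥1 read per output were kept.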
row,Variant,polymerase ribozyme fitness (log ratio)
1,GACCAAUCUGCCCUCAGAGCUCGAGAACAUCUUCGGAUGCAGAGGAGGCAGGAUUCGGUGGCGCGAUAGCGCCAACGUCCUCAACCUCCAAUGCAUCCCGCCACAUGAUGAUACCUGAACAGCCUUGGUUUUUUG [C53A A100G G113A G120C],-4.41
2,GACCAAUCUGCCCUCAGAGCUCGAGAACAUCUUCGGAUGCAGAGGAGGCAGGUUUCGGUGGCGCGAUAGCACCAACGUCCUCAACCUCCAAUGCAUCCCAGCACAUGAUGAUGCCUGAAGAGCCUUGGUAUUUUG [C53U G71A C101G U130A],-3.93
3,GACCAAUCUGCCCUCACAGCUCGAGAACAUCUUCGGAUGCAGAGGAGGCCGGCUUCGGUGGCGCGAUAGCGCCAACGUCCACAACCUCCAAUGCAUCCCACCACAUGAUGAUGUCUGAAUAGCCUUGGUUUUUUG [G17C A50C U81A C114U G120U],-5.67
4,GACCAAUCUGCCCUCAGAGCUCGAGAACAUCUUCGGAUGGUGAGUAGGCAGGCUUCGGUGGCGCGAUAGCGCCAACGUCCUCAACCUCCAAUGCAUCCCACCACAUGAUGAUGCCUGAAGAGCCUUGGUUUUUUG [C40G A41U G45U],-5.41
5,GACCAAUCUGCCCUCAGAGCUCGAGAACAUCUUCGGAUGCAGAGGAGGCCGGCUUCGGUGGCGCGAUAGCGCCAACGUCCCCAACCUCCAAUGCAUCCCACCACAUGAUGAUGCCUGAAGAGCCUUGGUUUUUUG [A50C U81C],0.175
6,GACCAAUCUGCCCUCAGAGCUCGAGAACAUCUUCGGAUGCAGAGGAGGCAGACUUCGGUGGCGCGAUAGCGCCAACGUCCUCAACCUCCAAUGCAUCCCACCACAUGAUGAUGCCUGAAUAGCCUUGGUUUUUUG [G52A G120U],-0.416
7,GACCAAUCUGCCCUCAGCGCUCGGGAACAUCUUCGGAUGCAGAGGAGGCAGGCUUCGAUGGCGCGAUAGCGCCAACGUCCUCAACCUCCAACGCAUCCCACCACAUGAUGAUGCCUGAAGAGCCUUGGUUUUUUG [A18C A24G G58A U92C],-5.73
8,GACCAAUCUGCCCUCAGAGCUCGAGAACAUCUUCGGUUGCAGAGGAGGCAGGCUUCGGUGGCGCGAUAGCGCCAACGUCCUCAACCUCCAAUGCAUCCCACCACACGAUGAUGCCUGAAGAGCCUUGGUUUUUUG [A37U U106C],-0.686
9,GACCAAUCUGCCCUCAGAGCUCGAGAACAUCUUCGGAUGCAGAGGAGGCAGGCUUCGGUGGAGCGAUAGCGCCAACUUCCUCAACCUCCAAUGCAUCCCACCACAUGAUGAUGGCUGAAGAGCCUUGGUUUUUUG [C62A G77U C114G],-4.81
10,GACCAAUCUGCCCUCAGAGCUCGAGAACAUCUUCGGAUGCAGAGGAGGAAGGCUUCGGUGGCGCGAUAGUGCCAACGUCCUCAACCUCCAAUGCAUCCCACCACAUGAUGAUGCCUGAAGAGCCUUGGUUUUUUG [C49A C70U],-1.18
11,GACCAAUCUGCCCUCAGAUCUCGAGAACAUCUUCGGAUGCAGAGGAGGCAGGCUUCGGUGGCGCGAUAGCGCCAAAGUCCUCAAUCUCCAAUGCAUCCCACCACAUGAUGAUGCCUGAAGAGCGUUGGUUUUUUG [G19U C76A C85U C124G],-3.5
12,GACCAAUCUGCCCUCAGAGCUCGAGAACAUCUUCGGAUGCCGAGGAGGCAGGCUUCGGUGGCGCGAUAGUGCCAACGUCCUCAACCUCCAAUGCAUCCCACCACAUGAUGAUGCCUGAAGAGCCUUGGUUUUUUG [A41C C70U],-2.04
13,GACCAAUCUGCCCUCAGAGCUCGAGAACAUCUUCGGAUGCAGAGGAGGCCGGCUUCGGUGGCGCGAUAGCGCCAACGUCCUCAACCUCCAAUGCAUCCCACCACAUGAUAAUGCCUGAAGAGCCUUGGUUUUUUG [A50C G110A],-2.37
14,GACCAAUCUGCCCUCAGAGCUCGAGAACAUCUUCGGAUGCAAAGGAAGCAGGCUUCGGUGGCGCGAUAGCGCCAACGUCCUCAACCUCCAAUGCAUCCCACCACAUGAUGAUGCCUGAAGAGCCUUGGUUUUUUG [G42A G47A],-2.34
15,GACGGAUCUGUCCUCAGAGCUCGAGAACAUCUUCGGAUGCAGAGGAGGCAGGCUUCGGUGGCGCGAUAGCGCGAACGUCCUCAACCUCAAAUGCAUCCCACCACAUGAUGAUUUCUGAAGAUCCUUGGGUUUUUG [C4G A5G C11U C73G C89A G113U C114U G122U U129G],-5.02
16,GACCAAUCUGCCCUAAGAGCUCGAGAACAUCUUCGGAUGCAGAGGAGGCAGGCUUCGGUGGCGCGAUAGCGCCAACGUCCUCAACCUCCAAUGUAUCCCACCACAUGAUGAUGCCUGAAGAGCCUUGGUUUUUUG [C15A C94U],-1.87
17,GCCCAAUCUGCCCUCAGAGCUCGAGAACAUCUUCGGAUGCAGAGGAGGCAGGCUUCGGUGGCGCGAUAGCGCCAACGUCCUCAACCUGCAAUGCAUCCCACCAAAUGAUGAGGCCUGAAGAGCCUUGGUUUUUUG [A2C C88G C104A U112G],-4.8
18,GACCAGUGUGCCCUCAGAGCUCGAGAACACCUUCGGAUGCGGAGGAGGCAGGCUUCGGUUGCGCGAUAGCGCCAACGUCCUCAACCUCCAAUGCAUCCCACCACAUGAUGAUGCCUGAAGAGCCUUGGUUUUUUG [A6G C8G U30C A41G G60U],-3.67
19,GACCAAUCUGCCCUCAGAGCUCGAGAACAUCUUCGGAUGCAGAGGAGGCAGGCUUCGGUGGCGCGAUAGAGCCAACGUCCUCAACCUCCAAUGCAUCCCACCACAUGAUGAUUCCUGAAGAGCCUUGGUUUUUUG [C70A G113U],-2.82
20,GACCAAUCUGCCCUCAGUGCUCGAGAACAUCUUCGGAUGCAGAGGAGGCAGGCUUCGGUGGCGCGAUAGCGCCAACGUCCACAACCUCCAAUGCAUCCCACCACAUGAUGAUGACUGAAGAGCCUUGGUUUUUUG [A18U U81A C114A],-3.7
21,GACCAAUCUGCCCUAAGAUCUCGAGAACAUCUUCGGAUGCAGAGGAGGCAGGCUUCGGUGGCCCGAUAGCGCCAACGUCCUCAACCUCCAAUGCAUCCCACCACAUGAUGAUACCUGAAGAGCCUUGGUUUUUUC [C15A G19U G63C G113A G135C],-3.99
